These results are taken from patent US20260139035A1 (NATIONAL UNIVERSITY CORPORATION KUMAMOTO UNIVERSITY, published 2026).

Where a chain is given by its changes, count along the chain named.

Holding throughout (experiment): cell-based or functional assay
Experiment [1] deals with spike protein of SARS-CoV-2 Omicron BA.2 (SARS-CoV-2).
The target of experiment [2] is spike protein of SARS-CoV-2 Alpha strain (B.1.1.7) (SARS-CoV-2).
For experiment [3], the target named is spike protein of SARS-CoV-2 Beta strain (B.1.351) (SARS-CoV-2).
Experiment [4] concerns the target spike protein of SARS-CoV-2 prototype (614G) (SARS-CoV-2, UniProt P0DTC2 14-1273).
Experiment [5] addresses spike protein of SARS-CoV-2 Mu strain (B.1.621) (SARS-CoV-2).
The target in experiment [6] is spike protein of SARS-CoV-2 Omicron BA.1.1 (SARS-CoV-2).
The target in experiment [7] is spike protein of SARS-CoV-2 Delta strain (B.1.617.2) (SARS-CoV-2).
For experiment [8], the target named is spike protein of SARS-CoV-2 Omicron BA.1 (SARS-CoV-2).
The target of experiment [9] is spike protein of SARS-CoV-2 Omicron BA.2.12.1 (SARS-CoV-2).
Experiment [10] addresses spike protein of SARS-CoV-2 Omicron BA.4/5 (SARS-CoV-2).
For experiment [11], the target named is spike protein of SARS-CoV-2 Gamma strain (P.1) (SARS-CoV-2).
Experiment [12] deals with spike protein of SARS-CoV-2 Kappa strain (B.1.617.1) (SARS-CoV-2).
In experiment [13] the target is spike protein of SARS-CoV-2 Lambda strain (C.37) (SARS-CoV-2).
In experiment [14] the target is spike protein of SARS-CoV-2 Omicron BA.3 (SARS-CoV-2).

B1: 1-58 antibody (antibody, V domains shown)
VH: QVQLVQSGAEVKKPGASVRVSCKASGYSFTASYMHWVRQAPGQGLEWMAIINPGDDNTSYAQKFQGRVTLTRDTSTTTVYMELRSLRSEDTAVYYCTRSTRDYVWGNYRYTPGYYLDYWGQGTLVTVSS
VL: DIRMTQSPSSLSASVGDRVTITCRASQTISNYLNWYQQKPGKAPKLLIYAASSLQSGVPSRFSGSGSGTDFTLTISSLQPEDFATYYCQQGYITPITFGQGTRLEIK
For B1, the “IC50, pseudovirus neutralization” value in [1], in experiment [2], in experiment [3], in [4], in [5] and in experiment [6] was < 0.087 µg/mL each time. For the same molecule, the “IC50, pseudovirus neutralization” value in [7], in experiment [8], in [9], in experiment [10], in experiment [11] and in experiment [12] was < 0.087 µg/mL throughout. Besides, the “IC50, pseudovirus neutralization” value in experiment [13] and in experiment [14] was < 0.087 µg/mL each time.

B2: 1-44 antibody (antibody, V domains shown)
VH: EVQLVESGGGVVQPGSSLRLSCAASGFTFRSHAMHWVRQAPGKGLEGVAVIWYDGSNKYYADSVKGRFTISRDNSKNTLYLQMNSLRAEDTAVYYCAREGIAVPGNGADAFDIWGQGTMVTVSS
VL: B1 VL with R3Q, T28S, S30G, Y32F, G91T, I93S, I96Y, R103K
As for B2, the “IC50, pseudovirus neutralization” value in [1], in experiment [2], in [3], in experiment [4], in experiment [6] and in experiment [8] was < 0.47 µg/mL throughout. Moreover, the “IC50, pseudovirus neutralization” value in experiment [9], in experiment [11], in experiment [12], in experiment [13] and in [14] was < 0.47 µg/mL throughout.

B3: 4-66 antibody (antibody, V domains shown)
VH: EVQLVESGGGLVQPGGSLRLSCAASGIIVSRNYMTWVRQAPGKGLEWVSVIYSGGTTYYADSVKGRFTTSRDDSKNTLYLQMNSLRGDDTAVYYCARDPPHRRGSYWGQGTLVTVSS
VL: DILMTQSPSSLSASVGDRVTITCQASQDINKYLNWYQQKPGKAPKLLIYDASNLETGVPSRFSGSGSGTDFSFTISSLQPEDVATYYCQQSDNLPPTFGQGTNVEIK
B3: the “IC50, pseudovirus neutralization” value in experiment [1], in [2], in experiment [3], in [4], in experiment [5] and in [6] was < 0.21 µg/mL in each case. For the same molecule, the “IC50, pseudovirus neutralization” value in experiment [7], in experiment [8], in experiment [9], in experiment [10], in [11] and in [12] was < 0.21 µg/mL each time. Further, the “IC50, pseudovirus neutralization” value in [13] and in experiment [14] was < 0.21 µg/mL each time.
